According to patent US6423539B1, “Adjuvant treatment by in vivo activation of dendritic cells” (The Board of Trustees of the Leland Stanford Junior …, priority 2000, dated 2002):

How the values were obtained:
circulating blood DC = test: Clinical study: expansion and phenotype of circulating blood DC after Flt3L administration; assay type: in vivo, human
Procedure: Clinical studies were also performed to determine the effect of the activation methods in human patients. It was shown that administration of FL to patients with advanced cancer mobilizes DC precursors into the blood, resulting in an increase of circulating DC of 20 fold on average.
An expansion of circulating blood DC was found following Flt3L administration. PBMC from patients with advanced cancer were assessed either before or following 10 days of Flt3L administration. DC were characterized phenotypically by expression of HLA DR without expression of lineage markers (CD3, 14, 19, 56).
DC were gated on their expression of HLA DR and lack of lineage markers CD3, 14, 19, 56. Flt3L expanded DC express intermediate levels of CD4 and CD54 more homogeneously by comparison with unmobilized DC. Flt3L expanded DC, however, lack surface expression of CD86 and CD40 compared with unmobilized DC. Results are from one patient and are representative of three patients studied.

circulating DC = conditions: administration to mice in vivo; cited from earlier work

B1: FL: Flt-3 ligand, growth factor that stimulates proliferation of hematopoietic progenitor cells; DC mobilization agent (protein, UniProt P49771 27-235, looked up)
Fms-related tyrosine kinase 3 …: TQDCSFQHSPISSDFAVKIRELSDYLLQDYPVTVASNLQDEELCGGLWRLVLAQRWMERLKTVAGSKMQGLLERVNTEIHFVTKCAFQPPPSCLRFVQTNISRLLQETSEQLVALKPWITRQNFSRCLELQCQPDSSTLPPPWSPRPLEATAPTAPQPPLLLLLLLPVGLLLLAAAWCLHWQRTRRRTPRPGEQVPPVPSPQDLLLVEH
For B1, the “phenotype of expanded human DC” value (circulating blood DC; gated HLA DR positive, lineage negative, one patient, representative of three) was “immature phenotype”, the “change in circulating blood DC precursors by flow cytometry” value (circulating blood DC; patients with advanced cancer, before vs. after 10 days of Flt3L) was “significant increase” and the “increase of circulating DC” value (circulating blood DC; patients with advanced cancer, on average) was 20 fold. For the same molecule, the “increase in number of circulating DC” value (circulating DC) was 10-30 fold.
